Here are results for two molecules from patent publication US20110300156A1 (Genmab, published 2011).

For test [1], the target named is T1, human tissue factor (TF), membrane-bound on cells (human, UniProt P13726 33-295).
T1 construct: whole, on cells; also called cellular TF
The test is described as follows: FACS, MDA-MB-231 cells. In short, it runs like this:
(§1)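 Binding curves came from non-linear sigmoidal variable-slope fits of flow cytometry signal. Serially diluted HuMab was applied for 30 minutes on ice in PBS buffer containing 0.1% BSA and 0.02% Na-azide, with PE anti-human IgGFc secondary added after washing, again 30 minutes on ice, dark.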

Test [2] concerns the target T2, TF (Innovin) (UniProt P13726 33-295, limits assumed). Briefly: cell-based or functional assay.
In test [3] the target is T1, human tissue factor (TF), …. The test is described as follows: FACS, A431 cells, 30 µg/mL. In short, it runs like this: as §1
(In general: A flow cytometer gives signals particle by particle.)

The target is the same in test [4]. Briefly: FACS, A431 cells. An outline of the steps: as §1
The target is the same in test [5]. The test is described as follows: FACS, TF transfected CHO cells (S1015-TF). In short, it runs like this: as §1
Test [6] addresses T3, TFECDHis (extracellular domain of tissue factor, amino acid 1-251, with C-terminal His tag) (human, UniProt P13726 33-251).
T3 construct: range 1-251; The stated range 1-251 starts at residue 1 of NP-001984; also called extracellular domain of TF
Briefly: competition ELISA, inhibition of FVIIa (100 nM) binding to coated TFECDHis. As for the experimental part:
ELISA plates were coated overnight with TFECDHis (0.5 μg/mL, 100 μL per well). Plates were emptied, blocked with PBS containing 2% (v/v) chicken serum (1 hour, RT), and emptied again. […] Plates were washed and incubated with swine-anti-rabbit IgG-HRP antibody (1:2,500; DAKO). After washing, the immune complexes were visualized using ABTS as a substrate.
In general terms: An ELISA detects its analyte on a solid surface through an enzyme-linked reagent.

For test [7], the target named is T1, human tissue factor (TF), …. The test is described as follows: cell-based or functional assay.
Test [8] shares this target. The test is described as follows: FACS, Bx-PC3 cells, 30 µg/mL. In short, it runs like this: as §1
The target in test [9] is T2, TF (Innovin). Briefly: cell-based or functional assay. This is another data set of the same source.
The target in test [10] is T1, human tissue factor (TF), …. The test is described as follows: FACS on MDA-MB-231 cells (~900.000 TF molecules/cell) [panel MDA-MB-231 cells].
In test [11] the target is T3, TFECDHis (extracellular domain of …). The test is described as follows: SPR BIAcore 3000, HuMab immobilized, TFECDHis analyte. An outline of the steps:
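HuMab antibodies (500 RU) amine-coupled on a CM-5 chip; TFECDHis concentration series in HBS-EP run over them at 30 μl/min for 180 sec. Surface regenerated with glycine pH 2.0 or acetate pH 3.0; kinetics from double-referenced 1:1 Langmuir fitting.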
(In general: In SPR one partner is held on a chip, and binding of the other changes the refractive index at the surface.)

The target in test [12] is T1, human tissue factor (TF), …. The test is described as follows: FACS, TF transfected CHO cells (S1015-TF), 7.5 µg/mL. An outline of the steps: as §1
Test [13] has the same target. Briefly: FACS, Bx-PC3 cells. An outline of the steps: as §1

B1: anti-TF HuMab 109 (antibody, V domains shown)
VH: QVQLVESGGGVVQPGRSLRLSCPASGFTFSIYAMHWVRQAPGKGLEWVAVVSNDGYNKYYADSVKGRFTISRDNSKDTLYLQMNSLRAEDTAVYYCARDGQLGRGYFDYWGQGTLVTVSS
VL: EIVLTQSPATLSLSPGERAILSCRASQSVSSYLAWYQQKPGQAPRLLIYDASNRATGIPARFSGSGSGTDFTLTISSLEPEDFAVYYCQQRSNWPLTFGGGTKVEIK
notes: Human monoclonal antibody from HuMab mice
As a reminder, the EC50 is the concentration needed to bring the measured effect to its halfway point. Lower therefore signals greater potency. Usually EC50 (read off the curve) stands for the concentration that produces a half-maximal response. Lower therefore signals higher potency in that assay. The term Kd denotes the constant that tells how readily two partners part at equilibrium. With B1, the EC50 in [1] is 2.16 nM; in test [4], 1.74 nM; in [5], 0.92 nM; in test [13], 4.04 nM. Further, the “IC50, inhibition of blood coagulation (TF induced clotting time)” value with TF (Innovin) [2] came to 7.6 nM. Also, the figures for the “Max MFI” value in test [3], in test [8] and in test [12] were 3120, 1320 and 5630, respectively. In test [6], this molecule gave a max inhibition of 90%. The “IC50, inhibition of FVIIa induced IL-8 release (MDA-MB-231)” value in [7] came to 13.6 nM. Also, in test [7], the “max inhibition of FVIIa induced IL-8 release (MDA-MB-231)” value came to 70.4%. Also, in the test with TF (Innovin) [9], the “% max inhibition of FXa generation” value was found to be 18%. Moreover, in the test with TF (Innovin) [9], the “IC50, inhibition of FXa generation” value worked out at 0.09 nM. Further, in [10], the concentration for a half-maximal effect (EC50 (read off the curve)) is roughly 0.07 µg/mL. In addition, the Kd in test [11] was 4.75 nM.

B2: anti-TF HuMab 013 (antibody, V domains shown)
VH: EVQLVQSGAEVKKPGESLKISCKGSGYSFTSYWIGWVRQMPGKGLEWMGIIYPGDSDTRYSPSFQGQVTISADKSISTAYLQWSSLKASDTAMYYCARIHRGAGYSSSWPGAFDIWGQGTMVTVSS
VL: DIQMTQSPSSLSASVGDRVTITCRASQGISRWLAWYQQKPEKAPKSLIYAASSLQSGVPSRFSGSGSGTDFTLTISSLQPEDFATYYCQQYDSDPITFGQGTRLEIK
notes: Human monoclonal antibody from HuMab mice; also called HuMab-TF-13
Usually IC50 stands for the concentration that inhibits the measured activity by half. High values mean weaker potency in that assay, low ones greater potency in that assay. On to B2, for which the EC50 came to 1.58 nM in test [1], 8.04 nM in [4], 1.07 nM in [5] and 1.86 nM in test [13]. In the test with TF (Innovin) [2], the “IC50, inhibition of blood coagulation (TF induced clotting time)” value stood at 0.6 nM. In addition, the “Max MFI” value in test [3] is 3620; in test [8], 1300; in test [12], 5210. In [6], the 50% inhibitory concentration (IC50) came out at 19.3 nM. Also, in test [6], the max inhibition worked out at 27%. For the same molecule, the “max inhibition of FVIIa induced IL-8 release (MDA-MB-231)” value in test [7] was -0.3%. Moreover, the “% max inhibition of FXa generation” value with TF (Innovin) [9] worked out at 31%. The “IC50, inhibition of FXa generation” value with TF (Innovin) [9] was 0.05 nM. The “EC50 (read off the curve)” value in [10] is roughly 0.1 µg/mL. For the same molecule, the affinity in [11], expressed as Kd, was 2.78 nM.
